According to article PMC7185628:

Target: MERS-CoV spike protein (S) (MERS-CoV, UniProt K9N5Q8 18-1296)
Test: EMSA

Chain of MERS-CoV spike protein (S) (K9N5Q8 18-1296): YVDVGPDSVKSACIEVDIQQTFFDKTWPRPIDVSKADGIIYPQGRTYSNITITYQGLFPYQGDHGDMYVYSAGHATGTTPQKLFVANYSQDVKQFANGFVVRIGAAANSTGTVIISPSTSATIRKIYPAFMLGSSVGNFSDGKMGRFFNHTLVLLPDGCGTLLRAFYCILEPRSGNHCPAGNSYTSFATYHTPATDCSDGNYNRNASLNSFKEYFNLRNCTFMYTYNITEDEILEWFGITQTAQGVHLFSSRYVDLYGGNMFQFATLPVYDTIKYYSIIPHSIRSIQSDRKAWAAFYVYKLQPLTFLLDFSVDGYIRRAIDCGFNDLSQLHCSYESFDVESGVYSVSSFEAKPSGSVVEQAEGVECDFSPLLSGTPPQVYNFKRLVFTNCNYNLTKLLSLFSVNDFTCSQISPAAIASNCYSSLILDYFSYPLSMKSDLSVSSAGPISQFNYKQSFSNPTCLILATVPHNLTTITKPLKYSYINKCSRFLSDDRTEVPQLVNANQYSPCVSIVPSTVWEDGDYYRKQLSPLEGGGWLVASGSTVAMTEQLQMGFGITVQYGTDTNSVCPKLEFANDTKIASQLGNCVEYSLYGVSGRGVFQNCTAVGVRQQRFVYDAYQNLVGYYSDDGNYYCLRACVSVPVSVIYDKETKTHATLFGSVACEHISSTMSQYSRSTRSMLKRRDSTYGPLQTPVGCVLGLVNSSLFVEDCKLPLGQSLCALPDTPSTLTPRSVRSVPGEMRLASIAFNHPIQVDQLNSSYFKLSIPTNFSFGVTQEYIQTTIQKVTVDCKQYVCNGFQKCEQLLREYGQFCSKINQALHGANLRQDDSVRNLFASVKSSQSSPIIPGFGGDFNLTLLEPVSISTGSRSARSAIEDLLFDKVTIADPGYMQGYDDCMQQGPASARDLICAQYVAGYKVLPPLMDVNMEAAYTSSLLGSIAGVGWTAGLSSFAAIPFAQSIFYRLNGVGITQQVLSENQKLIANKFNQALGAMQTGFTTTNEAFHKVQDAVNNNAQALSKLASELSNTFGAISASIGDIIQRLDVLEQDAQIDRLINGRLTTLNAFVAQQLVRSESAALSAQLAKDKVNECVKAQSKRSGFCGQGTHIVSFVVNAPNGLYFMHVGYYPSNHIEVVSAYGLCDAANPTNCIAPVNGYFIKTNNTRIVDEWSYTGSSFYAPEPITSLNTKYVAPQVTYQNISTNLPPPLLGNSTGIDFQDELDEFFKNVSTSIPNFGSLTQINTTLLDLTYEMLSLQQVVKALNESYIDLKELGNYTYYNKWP

B1: AIapt/FAM/SH-DNA 3WJ (MF-DNA) (structured_DNA)
DNA 1: GTGTGCATGGATAGCACGTAACGGTGTAGTAGATACGTGCGGGTAGGAAGAAAGGGAAATAGTTGTCCTGTTGTTGCCATGTGTATGTGGG
DNA 2: CCCACATACTTTGTTGATCC
DNA 3: GGATCAATCATGGCAA
modifications: 5' thiol on strand 3 (SH/3WJc)
Does B1 bind?
Result: no binding
